Measurements: patent US20260176603, “TYPE II CAS PROTEINS AND APPLICATIONS THEREOF” (Alia Therapeutics Srl, published 2026)

T1: BDLP Type II Cas (metagenomic)
T1 chain: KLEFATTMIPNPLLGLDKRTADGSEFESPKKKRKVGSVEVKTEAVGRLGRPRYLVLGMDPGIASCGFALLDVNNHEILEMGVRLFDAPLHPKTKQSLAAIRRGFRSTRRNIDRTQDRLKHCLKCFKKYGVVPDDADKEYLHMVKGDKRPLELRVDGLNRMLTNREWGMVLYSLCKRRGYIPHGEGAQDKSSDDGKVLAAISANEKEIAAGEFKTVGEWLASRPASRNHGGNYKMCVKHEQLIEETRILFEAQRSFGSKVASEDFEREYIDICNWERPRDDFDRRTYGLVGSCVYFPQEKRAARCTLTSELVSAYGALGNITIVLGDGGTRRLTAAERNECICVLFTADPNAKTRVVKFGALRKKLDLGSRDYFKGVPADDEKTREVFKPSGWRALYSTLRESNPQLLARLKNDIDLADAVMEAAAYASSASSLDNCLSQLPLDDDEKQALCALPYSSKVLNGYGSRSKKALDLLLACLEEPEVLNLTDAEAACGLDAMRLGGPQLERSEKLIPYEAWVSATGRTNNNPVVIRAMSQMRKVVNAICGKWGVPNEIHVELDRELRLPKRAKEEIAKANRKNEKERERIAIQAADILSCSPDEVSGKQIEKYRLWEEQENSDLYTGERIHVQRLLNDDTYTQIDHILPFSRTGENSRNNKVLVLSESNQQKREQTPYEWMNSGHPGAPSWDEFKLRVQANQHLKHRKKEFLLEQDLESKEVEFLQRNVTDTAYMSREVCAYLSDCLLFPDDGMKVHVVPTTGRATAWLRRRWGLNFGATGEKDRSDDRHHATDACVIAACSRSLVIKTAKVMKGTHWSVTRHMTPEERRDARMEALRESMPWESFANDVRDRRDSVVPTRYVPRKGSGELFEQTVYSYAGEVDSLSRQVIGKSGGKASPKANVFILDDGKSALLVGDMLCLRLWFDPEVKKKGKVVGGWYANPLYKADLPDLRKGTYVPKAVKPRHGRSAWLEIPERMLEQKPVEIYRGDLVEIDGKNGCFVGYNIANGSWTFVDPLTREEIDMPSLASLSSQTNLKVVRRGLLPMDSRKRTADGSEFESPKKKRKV

T2: EQSC Type II Cas (metagenomic)
T2 chain: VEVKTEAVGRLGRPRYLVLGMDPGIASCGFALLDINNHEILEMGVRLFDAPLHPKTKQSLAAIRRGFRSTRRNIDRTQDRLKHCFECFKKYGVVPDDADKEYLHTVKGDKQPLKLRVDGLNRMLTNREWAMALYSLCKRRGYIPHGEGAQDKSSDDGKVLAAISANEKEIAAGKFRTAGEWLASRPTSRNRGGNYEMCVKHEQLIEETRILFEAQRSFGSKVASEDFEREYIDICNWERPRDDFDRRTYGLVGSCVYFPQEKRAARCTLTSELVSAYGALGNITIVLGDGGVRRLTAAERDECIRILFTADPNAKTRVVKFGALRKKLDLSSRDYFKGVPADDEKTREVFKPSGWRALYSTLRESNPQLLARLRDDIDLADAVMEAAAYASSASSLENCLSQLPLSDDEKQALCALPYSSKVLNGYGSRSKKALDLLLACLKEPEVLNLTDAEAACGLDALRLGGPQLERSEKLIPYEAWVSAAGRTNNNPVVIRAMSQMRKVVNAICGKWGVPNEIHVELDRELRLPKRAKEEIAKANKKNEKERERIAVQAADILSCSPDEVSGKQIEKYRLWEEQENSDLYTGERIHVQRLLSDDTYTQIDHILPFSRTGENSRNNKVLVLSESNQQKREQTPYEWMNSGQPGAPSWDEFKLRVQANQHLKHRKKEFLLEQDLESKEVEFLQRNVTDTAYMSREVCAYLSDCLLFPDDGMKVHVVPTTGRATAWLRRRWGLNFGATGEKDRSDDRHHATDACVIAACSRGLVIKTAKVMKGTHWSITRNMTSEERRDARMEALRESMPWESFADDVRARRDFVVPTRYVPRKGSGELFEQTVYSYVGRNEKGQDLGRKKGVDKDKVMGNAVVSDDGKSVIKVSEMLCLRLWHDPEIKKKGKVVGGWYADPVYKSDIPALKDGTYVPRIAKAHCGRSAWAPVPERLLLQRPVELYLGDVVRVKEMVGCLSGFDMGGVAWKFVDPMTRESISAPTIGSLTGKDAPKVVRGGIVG

B1: gRNA-BDLP-EGFP-g3 ; EGFP target BDLP g3 (ssRNA ; dsDNA)
RNA: GUAGUUGCCGUCGUCCUUGAAGAAGUCUUGAGCUCGGAAACGAGACUCCAGACAAGGGGAGUCUACAACAGUAGGUUCACCCGUAGGGUUACCCCCGCGUCAUCCUCGGAAGGCGCGGGGCGAACUCUUUUUU
DNA 1: CTTGTAGTTGCCGTCGTCCTTGAAGAAGATGGTGCG
DNA 2: CGCACCATCTTCTTCAAGGACGACGGCAACTACAAG
B2: gRNA-BDLP-EGFP-g1 ; EGFP target BDLP g1 (ssRNA ; dsDNA)
RNA: GCCCAUCCUGGUCGAGCUGGACGGGUCUUGAGCUCGGAAACGAGACUCCAGACAAGGGGAGUCUACAACAGUAGGUUCACCCGUAGGGUUACCCCCGCGUCAUCCUCGGAAGGCGCGGGGCGAACUCUUUUUU
DNA 1: GGTGCCCATCCTGGTCGAGCTGGACGGCGACGTAAA
DNA 2: TTTACGTCGCCGTCCAGCTCGACCAGGATGGGCACC
B3: gRNA-BDLP-EGFP-g2 ; EGFP target BDLP g2 (ssRNA ; dsDNA)
RNA: GGGGUAGCGGCUGAAGCACUGCAGUCUUGAGCUCGGAAACGAGACUCCAGACAAGGGGAGUCUACAACAGUAGGUUCACCCGUAGGGUUACCCCCGCGUCAUCCUCGGAAGGCGCGGGGCGAACUCUUUUUU
DNA 1: GTCGGGGTAGCGGCTGAAGCACTGCACGCCGTAGG
DNA 2: CCTACGGCGTGCAGTGCTTCAGCCGCTACCCCGAC
B4: gRNA-EQSC-EGFP-g1 ; EGFP target EQSC g1 (ssRNA ; dsDNA)
RNA: GCCCAUCCUGGUCGAGCUGGACGGUCUUGAGCUCGGAAACGAGACUCCAGACAAGGGGAACCUACAACGGUAGGUUCACCCGUAGGGUUACCCCCGCGUCAUCUUCGGAAGGCGCGGGGCGAACUCUUUUUU
DNA 1: GGTGCCCATCCTGGTCGAGCTGGACGGCGACGTAAAC
DNA 2: GTTTACGTCGCCGTCCAGCTCGACCAGGATGGGCACC
B5: gRNA-EQSC-EGFP-g3 ; EGFP target EQSC g3 (ssRNA ; dsDNA)
RNA: GCACGACUUCUUCAAGUCCGCCAGUCUUGAGCUCGGAAACGAGACUCCAGACAAGGGGAACCUACAACGGUAGGUUCACCCGUAGGGUUACCCCCGCGUCAUCUUCGGAAGGCGCGGGGCGAACUCUUUUUU
DNA 1: GCAGCACGACTTCTTCAAGTCCGCCATGCCCGAAGGC
DNA 2: GCCTTCGGGCATGGCGGACTTGAAGAAGTCGTGCTGC
B6: gRNA-EQSC-EGFP-g2 ; EGFP target EQSC g2 (ssRNA ; dsDNA)
RNA: UGCAGAUGAACUUCAGGGUCAGCGUCUUGAGCUCGGAAACGAGACUCCAGACAAGGGGAACCUACAACGGUAGGUUCACCCGUAGGGUUACCCCCGCGUCAUCUUCGGAAGGCGCGGGGCGAACUCUUUUUU
DNA 1: TGGTGCAGATGAACTTCAGGGTCAGCTTGCCGTAGGT
DNA 2: ACCTACGGCAAGCTGACCCTGAAGTTCATCTGCACCA

Biological target: T1, BDLP Type II Cas
Assay: cell_activity; PAM NNNNGT; U2OS-EGFP
Conditions: tags: N-terminal SV5 tag and NLS, C-terminal NLS

activity, > 90 % EGFP KO:
B1, B2, B3

Biological target: T2, EQSC Type II Cas
Assay: cell_activity; PAM NNNNCNNA; U2OS-EGFP
Conditions: tags: N-terminal SV5 tag and NLS, C-terminal NLS

activity, > 90 % EGFP KO:
B4, B5, B6
